Assays:
[1] = test system: UGDH T325D; settings: UGDH T325D obligate dimer; cited from earlier work
[2] = Thermofluor Stability Assay (thermal denaturation) of purified UGDH; assay type: physicochemical, human; settings: for Tm Apo: apo enzyme; for Tm Holo: holoenzyme complex (substrate and cofactor)
Text: We first generated the UGDH S316 point mutants in a bacterial construct that expressed the proteins with a six-histidine fusion to facilitate purification by nickel affinity chromatography as we have done previously. […] However, UGDH S316D yields were somewhat lower as a result of protein precipitation following purification. To compare the intrinsic stability of the S316 point mutants, we used a modified version of the Thermofluor Stability Assay, which we have used previously as a preliminary indicator of UGDH quaternary assembly. The UGDH WT and UGDH S316A enzymes had significant increases in melting temperature (Tm) upon addition of either substrate or cofactor and were stabilized by almost 20°C in the holoenzyme complex as expected.
Purified S316 mutants were compared to the UGDH WT enzyme using the following approaches as previously described. Enzymatic activity was evaluated by steady state kinetics in the presence and absence of the endogenous inhibitor UDP-Xylose to compare Michaelis constants and IC50 values. Intrinsic stability was assessed by thermal denaturation and quaternary structure was determined by size exclusion chromatography. Binding of UDP-Xylose to recombinant UGDH and mutants was measured by isothermal titration calorimetry using the MicroCal PEAQ-ITC (Malvern Panalytical). UGDH WT (50 μM in 0.1 M sodium phosphate buffer, pH 7.4) was placed in the cell, with UDP-Xyl (250 μM) in the syringe. Binding heats were corrected for the heat of dilution and analyzed using the MicroCal PEAQ-ITC Analysis Software, employing a single-site binding model to determine Kd values.

Molecule | Vmax values [1] | Tm Apo [2] | Tm Holo [2]
UGDH T325D: obligate dimeric UGDH mutant, T325 to aspartate (protein, UniProt O60701 1-494, looked up, variant T325D) UDP-glucose 6-dehydrogenase: MFEIKKICCIGAGYVGGPTCSVIAHMCPEIRVTVVDVNESRINAWNSPTLPIYEPGLKEVVESCRGKNLFFSTNIDDAIKEADLVFISVNTPTKTYGMGKGRAADLKYIEACARRIVQNSNGYKIVTEKSTVPVRAAESIRRIFDANTKPNLNLQVLSNPEFLAEGTAIKDLKNPDRVLIGGDETPEGQRAVQALCAVYEHWVPREKILTTNTWSSELSKLAANAFLAQRISSINSISALCEATGADVEEVATAIGMDQRIGNKFLKASVGFGGSCFQKDVLNLVYLCEALNLPEVARYWQQVIDMNDYQRRRFASRIIDSLFNDVTDKKIAILGFAFKKDTGDTRESSSIYISKYLMDEGAHLHIYDPKVPREQIVVDLSHPGVSEDDQVSRLVTISKDPYEACDGAHAVVICTEWDMFKELDYERIHKKMLKPAFIFDGRRVLDGLHNELQTIGFQIETIGKKVSSKRIPYAPSGEIPKFSLQDPPNKKPKV | 65 to 75 nmol/min/mg | – | –
WT: purified recombinant human wild-type UGDH (protein, left off: His6, end not stated, state not stated, purified recombinant human wild-type UGDH) MFEIKKICCIGAGYVGGPTCSVIAHMCPEIRVTVVDVNESRINAWNSPTLPIYEPGLKEVVESCRGKNLFFSTNIDDAIKEADLVFISVNTPTKTYGMGKGRAADLKYIEACARRIVQNSNGYKIVTEKSTVPVRAAESIRRIFDANTKPNLNLQVLSNPEFLAEGTAIKDLKNPDRVLIGGDETPEGQRAVQALCAVYEHWVPREKILTTNTWSSELSKLAANAFLAQRISSINSISALCEATGADVEEVATAIGMDQRIGNKFLKASVGFGGSCFQKDVLNLVYLCEALNLPEVARYWQQVIDMNDYQRRRFASRIIDSLFNTVTDKKIAILGFAFKKDTGDTRESSSIYISKYLMDEGAHLHIYDPKVPREQIVVDLSHPGVSEDDQVSRLVTISKDPYEACDGAHAVVICTEWDMFKELDYERIHKKMLKPAFIFDGRRVLDGLHNELQTIGFQIETIGKKVSSKRIPYAPSGEIPKFSLQDPPNKKPKV | – | 50±0.4 °C | 68±1.7 °C
S316D: purified recombinant human UGDH, phosphomimetic serine 316 to aspartate point mutant (protein, left off: His6, end not stated, state not stated, purified recombinant human UGDH, phosphomimetic serine 316 to aspartate point mutant) MFEIKKICCIGAGYVGGPTCSVIAHMCPEIRVTVVDVNESRINAWNSPTLPIYEPGLKEVVESCRGKNLFFSTNIDDAIKEADLVFISVNTPTKTYGMGKGRAADLKYIEACARRIVQNSNGYKIVTEKSTVPVRAAESIRRIFDANTKPNLNLQVLSNPEFLAEGTAIKDLKNPDRVLIGGDETPEGQRAVQALCAVYEHWVPREKILTTNTWSSELSKLAANAFLAQRISSINSISALCEATGADVEEVATAIGMDQRIGNKFLKASVGFGGSCFQKDVLNLVYLCEALNLPEVARYWQQVIDMNDYQRRRFADRIIDSLFNTVTDKKIAILGFAFKKDTGDTRESSSIYISKYLMDEGAHLHIYDPKVPREQIVVDLSHPGVSEDDQVSRLVTISKDPYEACDGAHAVVICTEWDMFKELDYERIHKKMLKPAFIFDGRRVLDGLHNELQTIGFQIETIGKKVSSKRIPYAPSGEIPKFSLQDPPNKKPKV | – | 47±1.0 °C | 63±0.3 °C
S316A: purified recombinant human UGDH, phosphodeficient serine 316 to alanine point mutant (protein, left off: His6, end not stated, state not stated, purified recombinant human UGDH, phosphodeficient serine 316 to alanine point mutant) MFEIKKICCIGAGYVGGPTCSVIAHMCPEIRVTVVDVNESRINAWNSPTLPIYEPGLKEVVESCRGKNLFFSTNIDDAIKEADLVFISVNTPTKTYGMGKGRAADLKYIEACARRIVQNSNGYKIVTEKSTVPVRAAESIRRIFDANTKPNLNLQVLSNPEFLAEGTAIKDLKNPDRVLIGGDETPEGQRAVQALCAVYEHWVPREKILTTNTWSSELSKLAANAFLAQRISSINSISALCEATGADVEEVATAIGMDQRIGNKFLKASVGFGGSCFQKDVLNLVYLCEALNLPEVARYWQQVIDMNDYQRRRFAARIIDSLFNTVTDKKIAILGFAFKKDTGDTRESSSIYISKYLMDEGAHLHIYDPKVPREQIVVDLSHPGVSEDDQVSRLVTISKDPYEACDGAHAVVICTEWDMFKELDYERIHKKMLKPAFIFDGRRVLDGLHNELQTIGFQIETIGKKVSSKRIPYAPSGEIPKFSLQDPPNKKPKV | – | 49±0.2 °C | 66±3.0 °C
